Data: patent publication US20190241648A1 (STATEN BIOTECHNOLOGY B V, published 2019)

Legend:
[1] = biological target: T1, human ApoC3 (huApoC3), native protein purified from human serum (human, UniProt P02656 21-99); experiment: SPR Biacore, huApoC3 on chip, IgG1 as analyte
T1 construct: Athens Research and Technology; randomly biotinylated in some assays; also called Apolipoprotein C3

[2] = biological target: cynomologus monkey ApoC3 (cynoApoC3), native protein (Macaca fascicularis (cynomologus monkey), UniProt P18659 21-99); experiment: SPR (Biacore 3000), antibody IgG1 amine-coupled to a CM5 chip, native ApoC3 injected, HBS-EP pH 7.4
Chain of cynomologus monkey ApoC3 (cynoApoC3), native protein (P18659 21-99 limits assumed): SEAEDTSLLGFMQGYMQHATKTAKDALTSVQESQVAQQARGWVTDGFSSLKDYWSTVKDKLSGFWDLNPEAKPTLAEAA
Procedure: The SPR experiments were carried out using a Biacore 3000 instrument (GE Healthcare). Flow cells of CM5 sensor chips were coupled with the generated IgG formatted antibodies of 14C7, 5A7, 5E5 and 6A6 (˜2000 RU) using the amine coupling chemistry. The coupling was performed using the adaptive immobilization Biacore protocol aiming 2000 RU as coating density, using 10 μg/ml antibody solutions in 10 mM sodium acetate buffer at pH 5.0. For all experiments the HBS-EP buffer at pH 7.4 was used as running and dilution buffer. 60 μl of human native ApoC3 or cynomologus monkey native ApoC3 protein preparations in the concentration range of 10 to 200 μg/ml were injected over all flow channels, followed by an off-rate wash at pH7.4 for 5 min. All injections were performed at a constant flow rate of 30 μl/min at 25° C. After the dissociation, the flow cell surfaces were regenerated by injecting 10 μl of 10 mM NaOH/1 M NaCl and 10 μl of 10 mM glycine at pH1.5. The resulting sensorgrams after blank channel subtraction were used to confirm cross-species reactivity and to evaluate affinity.

[3] = biological target: T1, human ApoC3 (huApoC3), native protein …; experiment: cell-based or functional assay
[4] = biological target: T1, human ApoC3 (huApoC3), native protein …; experiment: ELISA, biotinylated huApoC3 captured on neutravidin, scFv periplasmic extract
Procedure: The antibody clones selected from the scFv phage display library constructed in Example 1 were analyzed by a ELISA assay with biotinylated ApoC3 captured by […] which was coated on plates. Neutravidin (Fisher Scientific LDAcat#: W9995L) diluted in PBS (pH 7.4) at a concentration of 2-5 μg/ml (100 μl/well) was incubated in Microtiter Immunoassay Maxisorp 96-well plates (NUNC cat#:1456537 or similar) at 4° C. overnight. The coated plates were washed three times with 250 μl/well PBS-T to remove the excess of the unbound neutravidin. After washing, 250 μl 1% (m/v) of casein solution prepared in PBS was added to each coated well for blocking, and the plates were incubated for 1 to 2 hours at room temperature on a plate shaker (TitraMax 1000, Heidolph or similar). After blocking, the plates were washed three times to remove the excess of the blocking solution with 250 μl/well PBS-T. Biotin groups were introduced at random sites of human native ApoC3 protein (Athens Research and Technology). […] The absorbance of the end-product is measured at 450 nm using a Microplate spectrophotometer.

T1 sequence (P02656 21-99): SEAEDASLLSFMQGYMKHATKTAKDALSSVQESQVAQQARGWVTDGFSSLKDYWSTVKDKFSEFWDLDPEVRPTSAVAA

| Ka [1] | Kd [1] | koff [1] | kon [1] | binding result [2] | EC50, attenuation of ApoC3-mediated LPL inhibition (NEFA production) [3] | binding result [4] | Binder |
| --- | --- | --- | --- | --- | --- | --- | --- |
| 1.46e+09 M⁻¹ | 0.000684 µM | 5.61e-05 s⁻¹ | 82000 M⁻¹ s⁻¹ | binds | ~2 µM | – | 14C7 IgG1 (antibody, V domains shown, IgG1 format) VH: QVQVQESGPGLVKPSQTLSLTCTVSGGSITTNSYYWSWIRQPPGKGLEWMGAIDYSGDTYYSPSLKSRTSISRDTSKNQFTLQLTSVTPEDTAVYYCVSRIPTGEYWGQGTQVTVSS VL: QTVVTQEPSLSVSPGGTVTLTCGLNSGSVTSSNYPDWYQQTPGQAPRLLIYNTNSRHSGVPSRFSGSISGNKAALTITGAQPEDEADYYCALYMGSDSVVFGGGTHLTVL |
| – | – | – | – | – | – | binds | 12D7 scFv (scFv, V domains shown, scFv (crude periplasmic extract) with C-terminal c-myc tag) VH: ELQLVESGGDLVQPGGSLRLSCAASGFTFDDYAMSWVRQAPGKGLEWVSAITSNGKRTDYAESMKGRFTISRDNSKNTLYLEMNSLKSEDTAVYYCTKGPPHYIPIPSMTPRDSWGQGTQVTVSS VL: SSALTQPSAVSVSLGQTARITCQGGTLGRYYGSWYQQKPAQAPVLLIYGDNSRPSGIPERFSGSKSGDTATLTISGTQAEDEADYYCESFDFSGNAAVFGGGTHLTVL |
| – | – | – | – | – | – | binds | 12G8 scFv (scFv, V domains shown, scFv (crude periplasmic extract) with C-terminal c-myc tag) VH: QLQLVESGGGLVQPGGSLRLSCAASGFTFDDYAMSWVRQAPGKGLEWVSAIRWNGDTYYAESMKGRFDMSRDNAKNTLYLQMNSLKSEDTAVYYCAKHRPGGALDTWGQGTLVTVSS VL: QAVLTQPSAVSVSLGQTARITCQGGNFGNFYASWYQQKPGQAPVLVIYKDSERPSGIPERFSGSSSGDTATLTISGAQAEDEADYYCQSGSSSDNVVFGGGTHLTVL |
